Literature values, collected in article PMC4610346.

Molecular target: Jun leucine zipper (Homo sapiens) (UniProt P05412)
Sequence (P05412 277-311): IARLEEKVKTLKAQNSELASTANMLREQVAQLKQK

Sequence of Fos leucine zipper (P01100 162-196): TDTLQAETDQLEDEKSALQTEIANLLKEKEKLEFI

Kd: 54 nM
Substance: Fos leucine zipper (from UniProt P01100)
